Values of other authors as cited in publication PMC12071944, “Interaction Between Glucagon-like Peptide 1 and Its Analogs with Amyloid-β Peptide Affects Its Fibrillation and Cytotoxicity” (International Journal of Molecular Sciences, 2025).

Tested on: AD patients
Settings: human, in vivo
From the text: Worldwide, approximately 416 million individuals are affected by AD dementia, prodromal AD, or preclinical AD, accounting for 22% of the population aged 50 years and older.

B1: lecanemab (antibody, chains of the INN, looked up, V domains shown)
VH: EVQLVESGGGLVQPGGSLRLSCSASGFTFSSFGMHWVRQAPGKGLEWVAYISSGSSTIYYGDTVKGRFTISRDNAKNSLFLQMSSLRAEDTAVYYCAREGGYYYGRSYYTMDYWGQGTTVTVSS
VL: DVVMTQSPLSLPVTPGAPASISCRSSQSIVHSNGNTYLEWYLQKPGQSPKLLIYKVSNRFSGVPDRFSGSGSGTDFTLRISRVEAEDVGIYYCFQGSHVPPTFGPGTKLEIK
  side effects: brain edema and microhemorrhages
